Article PMC11452665

Target: mink ryanodine receptor type 3 (RyR3) (mink)
Assay: cryo-EM structure

stoichiometry N: 4
Substance: mink ryanodine receptor type 3 (RyR3) (natural protein)
